Reference: PMC4803053

Biological target: DSB nucleosomes (position of the break not stated; EMSAs of Figures 5A and 6A) (human) (UniProt P0C0S8)

Work on “hMidm1m2–AID (Δ746–751/S813A/E829A/R847A/Q849A/L852A/K853A/N854A/D856A) (from UniProt Q9Y5B9 644-988) (domain or fragment)” yielded a hexasome formation in EMSA with DSB nucleosomes, against wild-type hMid–AID of 2 fold.
